Experimental data as given in the supplement of paper PMC9732359.
± gives the uncertainty stated by the source.

Test: protein stability index of a GFP-peptide fusion (yeast GPS) (PSI 1-4); higher = more stable; sorted into four equal gates, so the index is relative within each strain
Method in brief: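 Yeast carrying a pooled library were grown to mid-log phase in leucine-free medium. Each library plasmid expresses Cherry and has a tiled 17-residue yeast protein peptide fused downstream of GFP. Cells were sorted into four equal gates by GFP/Cherry ratio, and plasmids from each gate were PCR-amplified, Illumina-sequenced and assigned to strains by barcode. Summing, across gates, the read frequency times the gate number gave each peptide's protein stability index.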

Sequence	protein stability index (doa10∆)	protein stability index (pdr5∆)	protein stability index (san1∆)	protein stability index (ubr1∆)
DRRKARKAYFTAPSSER [RPL26B]	2.77 ± 0.17	2.72 ± 0.16	3.12 ± 0.082	3.1 ± 0.14
AGGAADCQFWETWLGSQ [PRE2]	3.19 ± 0.18	3.19 ± 0.15	2.97 ± 0.09	3.77 ± 0.13
GRHVATCSSDQHIKVFK [YGL100W/SEH1]	2.71 ± 0.066	2.76 ± 0.059	2.57 ± 0.08	2.75 ± 0.052
ATESIKNRRRIHGELKT [SMC1]	2.83 ± 0.17	3.09 ± 0.12	2.28 ± 0.26	2.61 ± 0.14
WSFEEVEVKDASLVDYV [RPS5]	1.32 ± 0.089	1.14 ± 0.06	1.22 ± 0.14	1.17 ± 0.056
IGGSDAAFEKRYRVDLL [RPO21]	3.32 ± 0.074	3.39 ± 0.067	3.25 ± 0.04	3.32 ± 0.053
VSQQPLSRGYTCPGLSL [ECM29]	3.02 ± 0.056	2.97 ± 0.04	3.02 ± 0.051	2.93 ± 0.044
TTTTANINEVKKASDLV [NUT1]	3.01 ± 0.06	3.07 ± 0.067	2.84 ± 0.067	2.62 ± 0.074
GKRQLMKAVGEYMKRHP [SEC65]	2.73 ± 0.082	3.31 ± 0.091	2.94 ± 0.071	2.47 ± 0.086
IVTGNLVLDLLTWLSSF [IRR1]	2.63 ± 0.061	2.66 ± 0.041	2.05 ± 0.07	2.29 ± 0.039
LIALSLIMALLQFRPAP [SMC2]	1.62 ± 0.029	1.3 ± 0.026	1.36 ± 0.048	1.3 ± 0.025
VGKLFRVGVVSILEAGD [RPL30]	1.99 ± 0.097	1.36 ± 0.093	1.58 ± 0.17	1.67 ± 0.081
NTAPGLGNTVSTQPSFA [YGR119C/NUP57]	3.04 ± 0.11	2.96 ± 0.079	2.9 ± 0.098	3.04 ± 0.056
YQTRARQKARTDAHTPL [RPR2]	3.29 ± 0.1	3.14 ± 0.09	3.32 ± 0.058	3.27 ± 0.078
QRTAQDRVQQDSEDEDS [YML031W/NDC1]	2.78 ± 0.089	2.56 ± 0.078	3.24 ± 0.081	2.91 ± 0.052
TLSEPVQGELKPTVILK [FAS1]	2.23 ± 0.054	2.22 ± 0.059	2.08 ± 0.072	1.63 ± 0.038
DPASFYLFDEIDAALDK [SMC3]	2.89 ± 0.075	3.02 ± 0.082	2.61 ± 0.083	2.72 ± 0.046
KIQVVDRHIGCVYSGLI [PRE10]	1.28 ± 0.12	1.7 ± 0.29	–	1.36 ± 0.14
QLYKRDPVSGAILVPMT [YJR042W/NUP85]	1.95 ± 0.18	1.75 ± 0.24	2.6 ± 0.099	2.67 ± 0.13
CSGSGMGGVSALRGMFK [FAS2]	3.64 ± 0.097	3.68 ± 0.08	3.37 ± 0.096	3.43 ± 0.067
KLREPVARFLHFNGIRR [ITC1]	2.04 ± 0.088	2.05 ± 0.063	2.5 ± 0.083	2.09 ± 0.046
GAELRSVCTEAGMFAIR [RPT1]	2.61 ± 0.18	3.4 ± 0.3	–	3.03 ± 0.23
FNQFVDYTLQDIICEDS [RPB2]	2.72 ± 0.1	2.86 ± 0.083	2.78 ± 0.053	2.36 ± 0.079
FRNNKNDNYSSDMENDN [REC8]	3.44 ± 0.18	3.15 ± 0.23	3.2 ± 0.17	2.73 ± 0.11
LYQIDYLGTKVELPYGA [PRE1]	1.72 ± 0.089	1.81 ± 0.079	1.62 ± 0.099	2.23 ± 0.073

Sequence	protein stability index (doa10∆)	protein stability index (pdr5∆)	protein stability index (san1∆)	protein stability index (ubr1∆)
LRPLFTRYELYIKNILE [YLR335W/NUP2]	1.6 ± 0.053	1.88 ± 0.044	1.8 ± 0.081	1.93 ± 0.033
QEASQVTFIFGELKRGN [MED11]	2.07 ± 0.062	2.75 ± 0.052	2.75 ± 0.066	2.6 ± 0.043
FTLWWSPTINRANVYVG [PRP8]	1.99 ± 0.089	1.88 ± 0.07	1.61 ± 0.15	2.04 ± 0.051
GNQRKILQYSRTWYESF [YJR042W/NUP85]	2.36 ± 0.099	2.79 ± 0.1	2.28 ± 0.17	2.21 ± 0.21
SEIWDVSRGQSAVLLET [PRP8]	2.83 ± 0.16	2.65 ± 0.15	3.12 ± 0.26	2.04 ± 0.091
DMFEMSDEEENNNNKSI [SSN2]	–	3.19 ± 0.18	3.32 ± 0.17	3.04 ± 0.079
STNEDQNNSKHTEDTVN [SRB5]	2.39 ± 0.1	2.1 ± 0.077	1.65 ± 0.1	2.31 ± 0.051
TFVYILEKLIFDMTNHY [SRB8]	1.71 ± 0.061	1.93 ± 0.042	1.69 ± 0.1	1.69 ± 0.039
DFPELKPYKQVKQIAPA [FAS2]	2.29 ± 0.066	2.46 ± 0.069	2.58 ± 0.07	2.66 ± 0.057
QQIPLLCYMAPMTVKLV [POP3]	1.63 ± 0.052	1.57 ± 0.047	1.78 ± 0.072	1.53 ± 0.057
VFVNTGLQNVRKVRTKK [SWP82]	2.51 ± 0.16	2.35 ± 0.096	2.78 ± 0.17	3.11 ± 0.15
TDCKFIRVSGAELVQKY [RPT6]	3.01 ± 0.14	3.24 ± 0.16	3.16 ± 0.15	2.93 ± 0.11
EPVKEYTFKTSMRVKPS [YMR129W/POM152]	3.31 ± 0.15	3.08 ± 0.13	3.04 ± 0.13	3.48 ± 0.16
FEYSKYRPLTPSSEVYS [RRP6]	3.07 ± 0.086	3.01 ± 0.071	2.87 ± 0.053	2.83 ± 0.056
EKRIQYAKDILQKEFLP [RPB2]	2.06 ± 0.055	1.85 ± 0.052	2.06 ± 0.091	2.08 ± 0.09
KIKAILESVGIEIEDEK [RPP2A]	2.75 ± 0.084	3.3 ± 0.11	2.8 ± 0.11	2.99 ± 0.13
MTQRAIQSAESIKSQKE [SWI3]	2.27 ± 0.12	1.74 ± 0.082	2.5 ± 0.14	1.7 ± 0.13
EPIEESSQNNSELAPIE [IRR1]	2.89 ± 0.2	2.9 ± 0.13	2.73 ± 0.26	2.73 ± 0.095
AFPKDDRSKPVALTSFL [RPL3]	2.77 ± 0.1	2.75 ± 0.083	3.33 ± 0.054	1.95 ± 0.045
LINDSYINDVHLLYPPH [SSN8]	3.29 ± 0.058	3.14 ± 0.057	2.96 ± 0.045	3.25 ± 0.053
DVRRLKKNVWRSINNLI [BRN1]	2.62 ± 0.29	1.9 ± 0.11	1.06 ± 0.15	1.1 ± 0.063
NIATQQNMQQSLQQMQH [GAL11]	2.75 ± 0.076	2.92 ± 0.091	2.68 ± 0.17	2.86 ± 0.069
HSNESSNETIGEIQLLF [IRR1]	2.68 ± 0.11	2.83 ± 0.14	3.27 ± 0.082	2.92 ± 0.084
QIFCVFSGKGVHKLRHY [GRR1]	2.67 ± 0.068	2.88 ± 0.061	3.09 ± 0.066	2.76 ± 0.053
ERVRLRPEQLSNIIHDE [SNF6]	1.73 ± 0.06	2.23 ± 0.068	1.76 ± 0.083	1.99 ± 0.041
